Reference: paper doi:10.1101/2023.07.07.548075 (bioRxiv, 2023)

Target: the molecule itself
Assay: SEC

B1: MBP-Δexon3 NLRP3 + GSGAGG linker (human NLRP3 3-1036, Δ95-134 + linker (GSGAGG)) (natural protein)
chain: MASTRCKLARYLEDLEDVDLKKFKMHLEDYPPQKGCIPLPRGQTEKADHVDLATLMIDFNGEEKAWAMAVWIFAAINRRDLYEKAKRDEPKWGSGAGGDYRKKYRKYVRSRFQCIEDRNARLGESVSLNKRYTRLRLIKEHRSQQEREQELLAIGKTKTCESPVSPIKMELLFDPDDEHSEPVHTVVFQGAAGIGKTILARKMMLDWASGTLYQDRFDYLFYIHCREVSLVTQRSLGDLIMSCCPDPNPPIHKIVRKPSRILFLMDGFDELQGAFDEHIGPLCTDWQKAERGDILLSSLIRKKLLPEASLLITTRPVALEKLQHLLDHPRHVEILGFSEAKRKEYFFKYFSDEAQARAAFSLIQENEVLFTMCFIPLVCWIVCTGLKQQMESGKSLAQTSKTTTAVYVFFLSSLLQPRGGSQEHGLCAHLWGLCSLAADGIWNQKILFEESDLRNHGLQKADVSAFLRMNLFQKEVDCEKFYSFIHMTFQEFFAAMYYLLEEEKEGRTNVPGSRLKLPSRDVTVLLENYGKFEKGYLIFVVRFLFGLVNQERTSYLEKKLSCKISQQIRLELLKWIEVKAKAKKLQIQPSQLELFYCLYEMQEEDFVQRAMDYFPKIEINLSTRMDHMVSSFCIENCHRVESLSLGFLHNMPKEEEEEEKEGRHLDMVQCVLPSSSHAACSHGLVNSHLTSSFCRGLFSVLSTSQSLTELDLSDNSLGDPGMRVLCETLQHPGCNIRRLWLGRCGLSHECCFDISLVLSSNQKLVELDLSDNALGDFGIRLLCVGLKHLLCNLKKLWLVSCCLTSACCQDLASVLSTSHSLTRLYVGENALGDSGVAILCEKAKNPQCNLQKLGLVNSGLTSVCCSALSSVLSTNQNLTHLYLRGNTLGDKGIKLLCEGLLHPDCKLQVLELDNCNLTSHCCWDLSTLLTSSQSLRKLSLGNNDLGDLGVMMFCEVLKQQSCLLQNLGLSEMYFNYETKSALETLQEEKPELTVVFEPSW
B1: binds.
